Experimental data taken from paper PMC12127886, “Mapping Hsp104 interactions using cross‐linking mass spectrometry” (FEBS Open Bio, 2025).

Assays:
[1] = biological target: Calcarisporiella thermophila CtHsp104ΔN (153–883 aa) (Calcarisporiella thermophila); test: SEC; purified Hsp104wt and Hsp104mt on a superdex-200 10/300GL column; molecular weights in Table S2
[2] = biological target: CtHsp104ΔN2R encoding the R328M/R757M mutations (Calcarisporiella thermophila); test: as above
[3] = biological target: the molecule itself; test: SEC; Hsp104fl and PCSK9 co-expressed in E. coli, complex purified by Ni-NTA, TEV cleavage and SEC; molecular weights in Table S2

Molecule: Calcarisporiella thermophila CtHsp104ΔN (153–883 aa) (domain or fragment)
- stoichiometry N [1]: 6

Molecule: CtHsp104ΔN2R encoding the R328M/R757M mutations (domain or fragment)
- stoichiometry N [2]: 6

B1: Thermochaetoides thermophila TtHsp104 full length (natural protein, UniProt A0A2Z6G185 1-926, looked up)
chain: MNSKMEFTDRAKKALEDAMALAEQYQHLQLQPVHLAVALLDPTPDPSKDQSAAPGTTSTLFRQVVERAHGDAQAFDRALKKKLVRLPSQDPPPDQVSMSAGCSSVLRKANELQKVQKDSYIAVDHLIAALAEDHTIQEALKEANIPKPKLVQDAIQAIRGNKRVDSRNADTEQENENLSKFCIDMTAMAREGKIDPVIGREEEIRRVIRILSRRTKNNPVLIGEPGVGKTTIVEGLAQRIVNADVPDNLAACKLLSLDVGALVAGSKYRGEFEERMKGVLKEIQESKETIILFVDEIHLLMGAGSSGEGGMDAANLLKPMLARGQLHCIGATTLAEYRKYIEKDAAFERRFQQVLVKEPSITETISILRGLKEKYEVHHGVNIADAAIVAAANLAARYLTSRRLPDSAVDLIDEAAAAVRVARESQPEIIDSLERRLRQLKIEIHALSREKDEASKARLAQAKQDAQNVEEELRPLREKYERERQRGKAIQEAKMKLEALRVKAEDASRMGDHSRAADLQYYAIPEQEAIIKRLEAEKAAADAALNANGADVGGSMITDVVGPDQINEIVARWTGIPVTRLKTSEKEKLLHMEQALSKIVVGQKEAVQSVSNAIRLQRSGLSNPNQPPSFLFCGPSGTGKTLLTKALAEFLFDDPKSMIRFDMSEYQERHSLSRMIGAPPGYVGHDAGGQLTEALRRRPFSILLFDEVEKAAKEVLTVLLQLMDDGRITDGQGRVVDAKNCIVVMTSNLGAEYLSRANNGKDGKIDPTTRELVMNTLRNYFLPEFLNRISSIVIFNRLTRREIRKIVDLRIAEIQKRLTDNDRNVTIKVSDEAKDKLGAQGYSPVYGARPLQRLLEKEVLNRLAILILRGQIREGEVACVELVDGKVQVLPNHPDSEPEDVDVDMESDDAVDEVAPDSMDEDIYND
notes: Hsp104 of Thermochaetoides thermophila, full length; Hexamer in the complex with PCSK9 by SEC; also called Hsp104fl; source: E. coli BL21, co-expressed with PCSK9, complex purified (Ni-NTA, TEV cleavage, SEC)
- stoichiometry N [3]: 6
